# Patent US20180155451A1 (published 2018)
# T1: FcγRIIb (human, UniProt P31994 43-217)
# T1 construct: extracellular domain; also called FcgRIIb; 2b; not shown: His tag at the C terminus
# T1 sequence (looked up): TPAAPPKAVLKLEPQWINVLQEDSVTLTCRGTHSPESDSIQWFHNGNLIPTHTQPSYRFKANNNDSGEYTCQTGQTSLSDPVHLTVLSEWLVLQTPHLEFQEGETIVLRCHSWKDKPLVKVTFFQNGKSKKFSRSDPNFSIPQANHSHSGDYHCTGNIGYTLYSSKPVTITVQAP
# T2: FcγRIIb extracellular domain with C-terminal His tag (human, UniProt P31994 43-217)
# T2 construct: extracellular domain; Expressed in FreeStyle293 cells; analyte in the Biacore assay; also called FcgRIIb; 2b; not shown: His tag at the C terminus
# T2 sequence (looked up): T1 sequence (looked up)
# B1: GpH7-A5/GpH7-B3 variant S267_11K/GpL16-k0 (antibody, human IgG1, kappa)
# heavy 1: not shown
# heavy 2: not shown
# light: DIVMTQSPLSLPVTPGEPASISCQASESLVHSNRNTYLHWYLQKPGQSPQLLIYKVSNRFSGVPDRFSGSGSGTDFTLKISRVEAEDVGVYYCSQNTHVPPTFGQGTKVEIERTVAAPSVFIFPPSDEQLKSGTASVVCLLNNFYPREAKVQWKVDNALQSGNSQESVTEQDSKDSTYSLSSTLTLSKADYEKHKVYACEVTHQGLSSPVTKSFNRGEC
# notes: He Ab: mutation only in the GpH7-B3 H chain; EU numbering; also called He Ab
# B2: GpH7-A5/GpH7-B3 variant S267_20W/GpL16-k0 (antibody, human IgG1, kappa)
# heavy 1: not shown
# heavy 2: not shown
# light: B1 light
# notes: as for B1
# B3: GpH7-A5/GpH7-B3 variant V266_05P/GpL16-k0 (antibody, human IgG1, kappa)
# heavy 1: not shown
# heavy 2: not shown
# light: B1 light
# notes: as for B1
# B4: GpH7-A5/GpH7-B3 variant S267_18N/GpL16-k0 (antibody, human IgG1, kappa)
# heavy 1: not shown
# heavy 2: not shown
# light: B1 light
# notes: as for B1
# B5: GpH7-A5/GpH7-B3 variant V266_15Y/GpL16-k0 (antibody, human IgG1, kappa)
# heavy 1: not shown
# heavy 2: not shown
# light: B1 light
# notes: as for B1
# B6: GpH7-A5/GpH7-B3 variant V266_16H/GpL16-k0 (antibody, human IgG1, kappa)
# heavy 1: not shown
# heavy 2: not shown
# light: B1 light
# notes: as for B1
# B7: GpH7-A5/GpH7-B3 variant V266_04F/GpL16-k0 (antibody, human IgG1, kappa)
# heavy 1: not shown
# heavy 2: not shown
# light: B1 light
# notes: as for B1
# B8: GpH7-A5/GpH7-B3 variant V266_11K/GpL16-k0 (antibody, human IgG1, kappa)
# heavy 1: not shown
# heavy 2: not shown
# light: B1 light
# notes: as for B1
# B9: GpH7-A5/GpH7-B3 variant V266_20W/GpL16-k0 (antibody, human IgG1, kappa)
# heavy 1: not shown
# heavy 2: not shown
# light: B1 light
# notes: as for B1
# B10: GpH7-A5/GpH7-B3 variant V266_10E/GpL16-k0 (antibody, human IgG1, kappa)
# heavy 1: not shown
# heavy 2: not shown
# light: B1 light
# notes: as for B1
# B11: GpH7-A5/GpH7-B3 variant V266_18N/GpL16-k0 (antibody, human IgG1, kappa)
# heavy 1: not shown
# heavy 2: not shown
# light: B1 light
# notes: as for B1
# B12: GpH7-A5/GpH7-B3 variant V266_09D/GpL16-k0 (antibody, human IgG1, kappa)
# heavy 1: not shown
# heavy 2: not shown
# light: B1 light
# notes: as for B1
# B13: GpH7-A5/GpH7-B3 variant S267_12R/GpL16-k0 (antibody, human IgG1, kappa)
# heavy 1: not shown
# heavy 2: not shown
# light: B1 light
# notes: as for B1
# B14: GpH7-A5/GpH7-B3 variant S267_16H/GpL16-k0 (antibody, human IgG1, kappa)
# heavy 1: not shown
# heavy 2: not shown
# light: B1 light
# notes: as for B1
# B15: GpH7-A5/GpH7-B3 variant V266_01G/GpL16-k0 (antibody, human IgG1, kappa)
# heavy 1: not shown
# heavy 2: not shown
# light: B1 light
# notes: as for B1
# B16: GpH7-A5/GpH7-B3 variant S267_15Y/GpL16-k0 (antibody, human IgG1, kappa)
# heavy 1: not shown
# heavy 2: not shown
# light: B1 light
# notes: as for B1
# B17: GpH7-A5/GpH7-B3 variant V266_13S/GpL16-k0 (antibody, human IgG1, kappa)
# heavy 1: not shown
# heavy 2: not shown
# light: B1 light
# notes: as for B1
# B18: GpH7-A5/GpH7-B3 variant E269_01G/GpL16-k0 (He Ab) (antibody, human IgG1, kappa)
# heavy 1: not shown
# heavy 2: not shown
# light: B1 light
# notes: Heterodimerized anti-glypican-3 IgG1; the mutation stands in the GpH7-B3 chain only
# B19: GpH7-A5/GpH7-B3 variant E269_08L/GpL16-k0 (He Ab) (antibody, human IgG1, kappa)
# heavy 1: not shown
# heavy 2: not shown
# light: B1 light
# notes: as for B18
# B20: GpH7-A5/GpH7-B3 variant H268_07I/GpL16-k0 (He Ab) (antibody, human IgG1, kappa)
# heavy 1: not shown
# heavy 2: not shown
# light: B1 light
# notes: as for B18
# B21: GpH7-A5/GpH7-B3 variant E269_14T/GpL16-k0 (He Ab) (antibody, human IgG1, kappa)
# heavy 1: not shown
# heavy 2: not shown
# light: B1 light
# notes: as for B18
# Molecular target: T3, FcγRIa (human, UniProt P12314 16-292)
# T3 construct: extracellular domain; also called FcgRI; 1a; not shown: His tag at the C terminus
# Test: SPR; He/Con_1a divided by He/Con_2b (FcγRIIb as reference)
# T3 sequence (P12314 16-292): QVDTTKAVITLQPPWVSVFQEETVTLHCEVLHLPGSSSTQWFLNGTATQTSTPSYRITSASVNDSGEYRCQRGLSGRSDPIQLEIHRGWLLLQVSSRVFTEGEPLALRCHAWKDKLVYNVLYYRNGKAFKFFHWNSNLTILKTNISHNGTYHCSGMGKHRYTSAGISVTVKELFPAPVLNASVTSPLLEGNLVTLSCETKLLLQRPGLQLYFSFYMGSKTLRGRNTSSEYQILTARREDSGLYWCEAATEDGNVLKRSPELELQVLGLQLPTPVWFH
row,Ia/IIb He_1a/2b,Binder
1,7.65 ratio,B1
2,1.74 ratio,B2
3,205 ratio,B3
4,2.15 ratio,B4
5,1.89 ratio,B5
6,1.56 ratio,B6
7,1.68 ratio,B7
8,63.5 ratio,B8
9,1.27 ratio,B9
10,5.37 ratio,B10
11,1.43 ratio,B11
12,7.88 ratio,B12
13,8.21 ratio,B13
14,1.52 ratio,B14
15,1.77 ratio,B15
16,2.48 ratio,B16
17,1.67 ratio,B17

# Molecular target: T3, FcγRIa
# Test: SPR (Biacore), captured antibody, soluble FcγR; relative to GpH7-A5/GpH7-B3/GpL16-k0
row,He/Con_1a,Binder
1,"93.3 relative, HeCon Ab = 100",B1
2,"99.4 relative, HeCon Ab = 100",B2
3,"71.9 relative, HeCon Ab = 100",B3
4,"102 relative, HeCon Ab = 100",B4
5,"93.3 relative, HeCon Ab = 100",B5
6,"89.1 relative, HeCon Ab = 100",B6
7,"96.7 relative, HeCon Ab = 100",B7
8,"64.4 relative, HeCon Ab = 100",B8
9,"91.4 relative, HeCon Ab = 100",B9
10,"81.9 relative, HeCon Ab = 100",B10
11,"99.5 relative, HeCon Ab = 100",B11
12,"79.3 relative, HeCon Ab = 100",B12
13,"92.7 relative, HeCon Ab = 100",B13
14,"100 relative, HeCon Ab = 100",B14
15,"91.3 relative, HeCon Ab = 100",B15
16,"94.2 relative, HeCon Ab = 100",B16
17,"90.6 relative, HeCon Ab = 100",B17

# Molecular target: T1, FcγRIIb
# Test: as above
row,He/Con_2b,Binder
1,"12.2 relative, HeCon Ab = 100",B1
2,"57.2 relative, HeCon Ab = 100",B2
3,"0.4 relative, HeCon Ab = 100",B3
4,"47.7 relative, HeCon Ab = 100",B4
5,"49.4 relative, HeCon Ab = 100",B5
6,"57.2 relative, HeCon Ab = 100",B6
7,"57.6 relative, HeCon Ab = 100",B7
8,"1 relative, HeCon Ab = 100",B8
9,"71.9 relative, HeCon Ab = 100",B9
10,"15.2 relative, HeCon Ab = 100",B10
11,"69.7 relative, HeCon Ab = 100",B11
12,"10.1 relative, HeCon Ab = 100",B12
13,"11.3 relative, HeCon Ab = 100",B13
14,"65.9 relative, HeCon Ab = 100",B14
15,"51.5 relative, HeCon Ab = 100",B15
16,"37.9 relative, HeCon Ab = 100",B16
17,"54.4 relative, HeCon Ab = 100",B17

# Molecular target: T4, FcγRIa extracellular domain with C-terminal His tag (human, UniProt P12314 16-292)
# T4 construct: extracellular domain; Expressed in FreeStyle293 cells; analyte in the Biacore assay; also called FcgRI; 1a; not shown: His tag at the C terminus
# Test: SPR (Biacore), antibody captured on antigen-peptide chip, FcγR as analyte; relative binding
# T4 sequence (P12314 16-292): as above
row,He/Con_1a,Binder
1,104 % of GpH7-A5/GpH7-B3/GpL16-k0 (=100),B18
2,104 % of GpH7-A5/GpH7-B3/GpL16-k0 (=100),B19
3,108 % of GpH7-A5/GpH7-B3/GpL16-k0 (=100),B20
4,106 % of GpH7-A5/GpH7-B3/GpL16-k0 (=100),B21

# Molecular target: T2, FcγRIIb extracellular domain with …
# Test: as above
row,He/Con_2b,Binder
1,51.5 % of GpH7-A5/GpH7-B3/GpL16-k0 (=100),B18
2,42.9 % of GpH7-A5/GpH7-B3/GpL16-k0 (=100),B19
3,88.9 % of GpH7-A5/GpH7-B3/GpL16-k0 (=100),B20
4,50.6 % of GpH7-A5/GpH7-B3/GpL16-k0 (=100),B21
